Results published in the DeepSol protein solubility set.

Experiment: soluble on expression in E. coli; label from the status in PepcDB or PDB records

Row | Sequence | soluble on expression in E. coli
1 | MVTKEQVVEALEGIVDPFLHKTLKETSAIKEVTVKPEKEHVSVKIAIVKTGTAEQMQLQSGIVKLVKELGAATVGLRFAEFTEEELAQFAPEQEEEQSESLLSPNSKTTFLAVASGKGGVGKSTVSVNLAVALARLGKKVGIIDADIYGFSVPDMMGIEKRPIVRGDKIIPVERLGVKVISMGFFVEDNAPVIWRGPMLGKMLNHFFTEVEWGDLDYLVLDLPPGTGDVALDVHSMLPSCKEIIVTTPHPTAAFVAARAGAMALRTEHSILGVVENMAYFESKVTGEKEYVFGKGGGDKLATELQTNVLGRIPLQQPDWNKEDFAPSVYEDTHTTGIIYSKIAETVIDKTAVTQKLEHHHHHH | soluble
2 | MVTKFLIFVSENQQLTSKFNLVTRQNADLKIGLRGVLFSIQGLREELSVAKQRIEEMKEDSFFESMPKLEREAPAFMDSPAETSSPDVEMEDVVYEEVVKETEVANF | not soluble
3 | MVTRVLIVGDGDAGTIMANKLRFHTDRRDVDITVVGNSKDHYFKPDGVHISFNMVDYKKSVKPTEFLFNYGVNYIRDTVSRIDVADHSVQTTGGRNLDYDYLIIATGDRFTPEDVPGYAESAKHFYDLPHALELQKEIKGFKGGKVVIGQASIPIMCPPAPYEFTFLLEEYLNFHGLKDKTEIHYIYPLNRVFTIPNVADFVAKRMEERGIITHTLFNVESIDPKNKKIQSLEGESINYDLLVLIPPHRGQKVITDSGLADESGYIDVDKYKLNYKDYDNVFAIGDATNLPVSKAGATAHFEALYLSNRIAAETSGNVYNELYEGDVACTTVTGYEKGLTLYFNYNKPPRANYDSKLDYFLKWQSGDTFFSSMLRGVALEHHHHHH | not soluble
4 | MVTTLTPVICESAPAAAASYSHAMKVNNLIFLSGQIPVTPDNKLVEGSIADKAEQVIQNIKNVLEASNSSLDRVVKVNIFLADINHFAEFNSVYAKYFNTHKPARSCVAVAALPLGVDMEMEAIAAERD | soluble
5 | MVVAKPTAAVSIEDLIKKHSDVDPFLVKKWERIFSLFFDRNASHQVDWGDFYLVVKKVRDIYGAESVQTGFAKKSLAALWEGLCSIADADKDQLISIDEWIGLLKKTDAKTEPKWFKDYQNFMFKLFDVSCDGVMDLAEYTDGMSTYGFDQSECDAAFHKFSVDKKGQYVPQMKPETWNTYFHQLFYSTNKSDVGNHLFGIIDF | not soluble
6 | MVVIIPPKLSVSTLMGVLKGRSAIRLFNKFPHVRKKQWGNSFWARGYFVDTVGVNEEIIRRYVRHQDKQDQEHEAQLSLQMM | soluble
7 | MVVIMLNYDDIKIIDEIYSEGYLFAQYGIYIKKKFKQKIFKIPVDIGLGCPHKKNGGCIFCPEMGRPISVKYCSAKIPLKEQIKKQMENQKKKGFKKFYIYFYPGTNTYAPAEKLKEIWDFSLSYKEVIGLSIGTRPDCLEKEKLDILAEYVENGYDIWIDLGVQSMHQKTLEILNRGHDVSDIIKAIKDCHKRGIKVCGHVILGLPGESWKEMMETAKILSLLEIEAVKIYPLVVVKGTKLEEMYW | not soluble
8 | MVYPRLLINLKEIEENARKVVEMASRRGIEIVGVTKVTLGDPRFAETLRKAGIGILGESRIRNVLRMKKAGIEGPFMLLRLPMMSELVEDVKHFDYIMVSDPDVAKKVDELSREMKRNVKIIYMIDVGDLREGVWFEKAVEEIAQCRGANIVGIGTNFGCYGGIIPTREKFEILLDIKEKLEKNHGFNIEIVSGGNTPALYALENGEIPEGINQLRIGEAIVLGRDITNNRVIDWLSQNTFLIEAEVIEVKEKPSVPLGKRGLDVFGRKVDFVDRGIRKRAICALGEQDIDSRGLIPVDKGVEVLHASSDHIVLDVTDFGDVKVGDVFRFRMTYSCLLKAMTSPFVEKVYEPSI | soluble
9 | MWDERFSQSEYVYGTEPNDFLVSVANQIPQGKILCLAEGEGRNACFLASLGYEVTAVDQSSVGLAKAKQLAQEKGVKITTVQSNLADFDIVADAWEGIVSIFCHLPSSLRQQLYPKVYQGLKPGGVFILEGFAPEQLQYNTGGPKDLDLLPKLETLQSELPSLNWLIANNLERNLDEGAYHQGKAALIQLLGQKLEHHHHHH | soluble
10 | MWGRYEKLRIFYDPTRAIYDSGADYLTREKHRLVVIANSAWGLLLNLSCYYDEVLEKRKIPFGKQEIDDDMDKVSALKRKFKDISEIKVGDGWEYPFNYEQGMKELDEVLLKYIPFFEEER | not soluble
11 | MYAKSLNGDAFSNEAKQKAIELIKQDLGQIDLVVYSLASPVRKMPDTGELVRSALKPIGETYTSTAVDTNKDVIIEASVEPATEQEIADTVTVMGGQDWELWIQALEEAGVLAEGCKTVAYSYIGTELTWPIYWDGALGRAKMDLDRAATALNEKLAAKGGTANVAVLKSVVTQASSAIPVMPLYIAMVFKKMREQGVHEGCMEQIYRMFSQRLYKEDGSAPEVDDHNRLRLDDWELRDDIQQHCRDLWPQITTENLRELTDYDMYKEEFIKLFGFGIEGIDYDADVNPEVEFDVIDIE | not soluble
12 | MYALEIEQLRKTYAGGFEALKGISLQVKKGDFYALLGPNGAGKSTTIGIISSLVNKTSGKVTVFGYDLDSQLELAKQKLGLVPQEFNFNPFETVEQIVLQQAGYYGVPKALAKERAKKYLTQLDLWEKRSERARNLSGGMKRRLMIARALMHEPQLLILDEPTAGVDIELRRSMWEFLKQINAQGVTIILTTHYLEEAEMLCRHIGIIQRGELIENTTMKSLLGKLHVETFVLDVDGNAPIAPLQGVVKQQMVEGSLEIELEKSQGINHVFTQLTEQGVKVLSMRNKVNRLEELFVSIVNSGKRG | not soluble
13 | MYARYAGLIFDMDGTLLDTEPTHRKAWREVLGRYGLRFDEQAMVALNGSPTWLIAQSIIELNHADLDPLSLAREKTDAVKSILLDCVEPLPLVEVVKAWHGRRPMSVGTGSESAIAEALLAHLGLRRYFDAVVAADHVQHHKPAPDTFLLCAQRMGVMPTQCVVFEDADFGLQAARAAGMDAVDVRLL | not soluble
14 | MYDKLLPMERIHIEVFEPFNGEAIEGKYSYVLLCRDYRSSFMWLLPLKSTKFKHLIPVVSSLFLTFARVPIFVTSSTLDKDDLYDICEEIASKYGLRIGLGLKSSARFHTGGILCIQYALNSYKKECLADWGKCLRYGPYRFNRRRNKRTKRK | soluble
15 | MYFMEILTCIKQVPGTTSVEVDETTGVLKRDGVDSKMNPYDLYALETALRIKEDKKANLKVLSMGPPQAKKVIEESFMMGADEGALISDRRFGGADVLATSYTISQGIKKMGKVDLIICGKQTTDGDTAQVGPEVAEFLDIPHVTNVTKLIEVKDESIVVEIDMPNDLQVCEIEYPCLITVEKDIFQPRLPSFKLKLNTKDREIPVYSLDDFEDKNENNYGLNGSPTQVVRIFPPKPNTDKNIVRGNADELSFALVNKLEELKLV | not soluble
16 | MYFVDRSKIEKTLGFFEHQLALFDSQTDWQSEIGELALQRIGHLLIECILDTGNDMIDGFIMRDPGSYDDIMDILVDEKVVTEKEGDELKKLIAYRKTLVQQYLLADSGELYRLIKAHQTALQDFPKRIRSYLETELGPVSAFKLEHHHHHH | soluble
17 | MYGEGDFYTIKSKRDYEFYLEADRLALGKNCKKPRLIGDDIWKFQRLLRQAEYYSNCQNSLLHKLYLKYILFRFHRMSIRLGFSIPINVFGPGLCIAHRGTIVVNKGARVGENCRIHACTNIGSGRDNIFLAPKIGNGVYIGPGAKIFGSVEIADNIAIGANSVVNRSFYERGISIAGVPAKKISNKGSDGMVIAATKTVSVPVSQETILEHHHHHH | soluble
18 | MYKWLLSVLLVLMSTVVHAADCFDLAGRDYKIDPDLLRAISWKESRNRANAVGINPVTGYGSGLMQVDSQHFNELARYGIKPEQLVSDPCLNIYTGAYYLAIAFRKWGVSWTAVGAYNAGFKKTPLQDARRLDYATDVHRIWIAIKQSKTRQTPAR | not soluble
19 | MYLHGTSRINGQGHLEIGGCDTTQLAKQYGTPLYVYDEGSIRGKCRAFHRAFKESGFSYQVAYASKAFLCMEMCRVAREENMSLDVVSGGELYTALQAGFPASRIHFHGNNKTEEEIVMALQANIGCFVVDNFFELEVLHDLAMQHGKFVNILIRVTPGVEAHTHEYITTGQDDSKFGFGVSNGQAMQAIGLALQKSNYNVLGIHSHIGSQIFETAGFVRAIEVLRQFLEEVREQTNYVVKVLNVGGGFGIRYTESDTPLTLETYVRAVTSAVREQFTVCEYPLPEIWIEPGRSIVGDAGTTIYTVGSVKDIPGIRKYVSVDGGMTDNLRPALYNARYEAMLANRANDENEELVSIAGKCCESGDMLIWDIHLPKVAASDLLAVSCTGAYGYSMANNYNRIRRPAVVFAKGGTSQVVVERETYENIIGNDRIRIKELV | not soluble
20 | MYLLRINIEGTINYGLYKYLYPALKAAEGKKSIAGLILVFNSGGGDAASSQLIHDLVKKIRKKKPVYSLALGICASGAYWIASASTKIYAIDTSLIGSIGVISIRPNVKKLMEKIGVDVMVYKSGKYKDMTSPFSEPNEEEKSVYQRLLDDIFEKFKRSVAEDRGIPSEKIDEIANGMVYSAKMAADNGLIDRIANYDDLVSDLTKEVGKRLKVKEFYIRKPLLQRLLGILEHHHHHH | not soluble
21 | MYLQPKKVRWRKQRRGTLKGKAFRGNKLAFGEYGIQALDRAWITQQQIEAVRVALVRSLKKGAKVWIRIFPDKPYTKKPNEVRMGGGKGDPEGFVAVVKPGRILFEFTGVPEEVAQEAFTIAASKLPIPVRLVKYGEFTFKYLEHHHHHH | not soluble
22 | MYNVTQHATYKTKNKRETAVLIGVHAQTDRQFNFESTMEELDALSQTCQLNVKGQITQNREQFDHKYYVGKGKIDEIKSFIEFHDIDVVVTNDELTTAQSKTLNDNLGIKIIDRTQLILEIFALRARSREGKLQVELAQLDYLLPRLHGHGKSLSRLGGGIGTRGPGETKLEMDRRHIRTRMNEIKHQLKTVVDHRERYRNKREQNQVFQIALVGYTNAGKSSWFNVLANEETYEKNILFATLDPKTRQIQVNEGFNLIISDTVGFIQKLPTTLVAAFKSTLEEAKGADVLMHVVDASHSEYRTQIDTVNQIINDLDMDHIPQVVIFNKKDLCNEQMDVPVSKSAHVFVSSRDENDKQKVKNLVIQEIKNSLSPYEEIVDSADADRLYFLKQHTLVTELIFDETQASYRIKGFKKLLEHHHHHH | not soluble
23 | MYPIKYVENNLVFNQEGECFAYYELVPYNYSFLSPEQKYQVHDNFRQLIAQNREGKIHALQIATESSIRATQERSKKEITGRLKEVAKQRIDLQTDALVSMIGDSQIDYRFFIGFKLIATDEEVNLKSLKKSFLSGLQEFVYGVNHHLMGDFVSLSNEEIRRYTKLEKLMESKLARRFKVRRVTPSDLTYLIEHIYGEKGTPFEEYEFQLPKKKLKSETLVKRYDLLHPSRCLIEENPRYLRMEHENHESYVAYLTINTIVGEMEFPSSELFYYQQQQFTFPIDTSMNVEIVTNKKALATVRNKKKELKDLDNHAYQSDNETNSNVLDALDSVNELETTLDQSKESMYKLSYVVRVSAESVDELKRRCDEVFDFYDDTNVKLVRPFGDMMGLHEEFLPSSKRYMNDYIQYVTSDFLAGLGFGATQKLGELEGIYFGYNVDTGRNVYLKPALASQGVKGSVTNALAAAFLGSLGGGKSFSNNLLVYYAVLFGGQAVIVDPKGERGGWKENLPEIADEINILNLTSKPENQGLLDPYVIMKKKKDSESLAIDILTFLTGISSRDGEKFPVLRKAIRTVTQSDQRGLLQVINELRKENSPVAENIADHIESFTDYDFAHLLFSDGSITQSISLDKQLNIIQVADLVLPDAETTFEEYTTMELLSVSMLIVISTFALDFIHSNREIFKIVDLDEAWSFLQVAQGKTLSNKLVRAGRAMNAGVYFVTQNSDDLLDERLKNNIGLKFAFRSTDIHEIKKTLEFFGLDQEDESNQKRLRDLENGQCLMQDLYGRVGVVQVHPVFEELFHAFDTRPPVQERME | not soluble
